# Assay results from PMC6604391.
# Where two headings read alike, the source gives them in different places.
# Assays:
# [1] = biological target: casein
# [2] = biological target: casein; remark: listed apart in the source
substance,measurement,setting,value
"SPPS, serine alkaline protease from Pleurotus sajor-caju strain CTM10057 (enzyme)","Km of casein hydrolysis (Lineweaver-Burk, pH 9.5, 70 °C)",[1],0.295 mg/mL
same,"Km of casein hydrolysis (Lineweaver-Burk, pH 9.5, 70 °C)",[2],0.275 mg/mL
